Data published in patent US20080207488A1, “Method for Detecting Peptides Comprising a Cross-B Structure” (priority 2005, published 2008).

Columns and labels:
tPA [1] = target: T1, tPA (Homo sapiens, UniProt P00750); assay: Plasminogen-activation assay (tPA-mediated Plg to Pls, S-2251); format: biochemical; details: 100 μg ml^−1 protein
T1 construct: purchased Boehringer-Ingelheim (Actilyse, Alteplase)
Method: Plasmin (Pls) activity was assayed as described^7. Peptides and proteins that were tested for their stimulatory ability were regularly used at 100 μg ml^−1. […] Chromogenic substrate S-2251 (Chromogenix, Instrumentation Laboratory SpA, Milano, Italy) was used to measure Pls activity. Conversion of zymogen factor XII (#233490, Calbiochem, EMD Biosciences, Inc., San Diego, Calif.) to proteolytically active factor XII (factor XIIa) was assayed by measurement of the conversion of chromogenic substrate Chromozym-PK (Roche Diagnostics, Almere, The Netherlands) by kallikrein. Chromozym-PK was used at a concentration of 0.3 mM. Factor XII, human plasma prekallikrein (#529583, Calbiochem) and human plasma cofactor high-molecular weight kininogen (#422686, Calbiochem) were used at concentrations of 1 μg ml^−1. […] Assays were performed using microtiter plates (Costar, Cambridge, Mass., USA). Peptides and proteins were tested for their ability to activate factor XII. […] The conversion of Chromozym-PK was recorded kinetically at 37° C. for at least 60 minutes. […] With S-2222, activation of factor XII in plasma was measured, using 60% v/v plasma, diluted with substrate and H2O with or without potential cofactor. Furthermore, auto-activation of factor XII was measured by incubating 53 μg ml^−1 purified factor XII in 50 mM Tris-HCl buffer pH 7.5 with 1 mM EDTA and 0.001% v/v Triton-X100, with S-2222 and H2O with or without potential cofactor.
Formulated protein therapeutics were obtained from the local hospital pharmacy and were used as supplied by the manufacturers. […] Enhancement in fluorescence of ThT and Congo red was measured with all formulated protein therapeutics. […]
To prepare structurally altered ovalbumin (OVA) with amyloid cross-β structure conformation, purified OVA (Sigma, A-7641, lot 071k7094) was heated to 85° C. […] Native OVA (nOVA) and heat-denatured OVA (dOVA) were tested in the ThT fluorescence assay and in the Plg-activation assay. In the fluorescence assay and in the Plg-activation assay, 25 and 100 μg ml^−1 nOVA and dOVA were tested, respectively. […]

[2] = ThT fluorescence of LPS-protein mixtures; format: physicochemical; details: 1 mg ml^−1 protein exposed to 600 μg ml^−1 LPS (FIG. 4C)
Method: (§1) Fluorescence of ThT-protein/peptide adducts was measured as follows. […] Fluorescence was measured at 485 nm upon excitation at 435 nm. Background signals from buffer, buffer with ThT and protein/peptide solution without ThT were subtracted from corresponding measurements with protein solution incubated with ThT. […] Fluorescence was measured in triplicate on a Hitachi F-4500 fluorescence spectrophotometer (Ltd., Tokyo, Japan).
Subsequently, the ability to enhance ThT fluorescence was determined with 40× diluted solution, as described above. […]

[3] = ThT fluorescence of CpG-ODN-protein mixtures; format: physicochemical; details: 1 mg ml^−1 protein exposed to 21.4 μg ml^−1 CPG-ODN (FIG. 4F)
Method: as §1
Enhancement of ThT fluorescence was measured similarly as described above. […]

tPA [4] = target: T1, tPA; assay: ELISA, binding of β2GPI to immobilized tPA
Method: (§2) Binding of purified human factor XII from plasma (Calbiochem) or of purified recombinant human tPA to β2GPI purified from human plasma, or to recombinant human β2GPI was tested in an ELISA. Ten μg of factor XII or tPA in PBS was coated onto wells of a Costar 2595 ELISA plate (Cambridge, USA) and incubated with concentration series of the two β2GPI preparations. Binding of β2GPI was assessed with monoclonal antibody 2B2^13.

factor XII = target: T2, factor XII (Homo sapiens, UniProt P00748); assay: ELISA, binding of β2GPI to immobilized factor XII
T2 construct: purchased Calbiochem, EMD Biosciences #233490
T2 sequence (P00748 20-615): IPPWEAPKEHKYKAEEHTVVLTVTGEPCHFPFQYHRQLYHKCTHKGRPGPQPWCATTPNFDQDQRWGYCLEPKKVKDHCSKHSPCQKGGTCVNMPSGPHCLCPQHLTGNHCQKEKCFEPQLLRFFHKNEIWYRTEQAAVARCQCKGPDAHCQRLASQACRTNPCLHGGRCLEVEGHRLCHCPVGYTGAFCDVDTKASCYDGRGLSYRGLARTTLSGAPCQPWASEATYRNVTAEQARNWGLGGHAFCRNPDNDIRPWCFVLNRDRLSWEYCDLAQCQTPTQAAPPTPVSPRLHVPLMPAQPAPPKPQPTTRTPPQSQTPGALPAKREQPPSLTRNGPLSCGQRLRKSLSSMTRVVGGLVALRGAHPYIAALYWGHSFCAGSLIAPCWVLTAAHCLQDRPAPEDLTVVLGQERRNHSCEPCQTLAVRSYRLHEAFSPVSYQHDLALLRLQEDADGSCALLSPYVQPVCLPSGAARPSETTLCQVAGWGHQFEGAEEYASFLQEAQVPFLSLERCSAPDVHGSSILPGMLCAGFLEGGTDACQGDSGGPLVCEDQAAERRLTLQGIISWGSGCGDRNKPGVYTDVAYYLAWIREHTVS
Method: as §2

[5] = system: anti-β2GPI auto-antibodies; assay: Interference with binding of anti-β2GPI autoantibodies to immobilized β2GPI; design: species or system human; details: antibodies from Anti-phospholipid syndrome patients
Method: When plasma derived β2GPI is coated onto hydrophilic ELISA plates, anti-β2GPI auto-antibodies isolated from plasma of antiphospholipid syndrome auto-immune patients can bind^14. To study the influence of co-incubations of the coated β2GPI with the antibodies together with plasma β2GPI or recombinant β2GPI, concentration series of β2GPI were added to the patient antibodies. Subsequently, binding of the antibodies to coated β2GPI was determined.

[6] = ThT fluorescence of β2GPI with or without CL vesicles or DXS500k; format: physicochemical; details: 25 μg ml^−1 β2GPI, 100 μM CL vesicles or 250 μg ml^−1 DXS
Method: ThT fluorescence of β2GPI was measured as follows. […] CL vesicles were prepared according to an established procedure. Briefly, CL was dried under a stream of nitrogen. The lipids were resuspended to a concentration of 10 mg ml^−1 in 25 mM Tris-HCl, pH 7.3, 150 mM NaCl by vigorous agitation, using a vortex. In the ThT fluorescence assay, fluorescence of β2GPI in buffer, of CL or DXS500k in buffer, of buffer and ThT alone, and of β2GPI-CL adducts and β2GPI-DXS500k adducts, with or without ThT, was recorded as described above (section ThT fluorescence). In addition, TEM images were recorded with CL, β2GPI from human plasma, with or without CL, and with recombinant β2GPI, as described^1.

T1 sequence (P00750 36-562): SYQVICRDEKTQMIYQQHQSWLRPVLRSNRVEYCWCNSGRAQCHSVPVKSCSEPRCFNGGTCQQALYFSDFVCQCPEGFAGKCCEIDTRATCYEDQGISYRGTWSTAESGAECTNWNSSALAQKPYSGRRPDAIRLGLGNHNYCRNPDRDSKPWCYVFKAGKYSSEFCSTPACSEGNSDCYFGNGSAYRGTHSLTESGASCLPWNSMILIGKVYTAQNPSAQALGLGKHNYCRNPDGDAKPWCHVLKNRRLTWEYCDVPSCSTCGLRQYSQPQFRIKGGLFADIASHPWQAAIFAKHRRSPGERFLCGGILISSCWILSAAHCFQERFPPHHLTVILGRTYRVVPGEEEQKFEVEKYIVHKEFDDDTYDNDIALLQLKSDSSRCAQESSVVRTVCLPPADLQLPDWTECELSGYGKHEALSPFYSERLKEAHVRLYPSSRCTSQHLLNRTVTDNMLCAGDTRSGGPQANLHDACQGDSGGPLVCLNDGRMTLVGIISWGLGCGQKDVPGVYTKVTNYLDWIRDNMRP

B1: plasma β2GPI: β2-glycoprotein I purified from fresh human plasma (protein)
chain: GRTCPKPDDLPFSTVVPLKTFYEPGEEITYSCKPGYVSRGGMRKFICPLTGLWPINTLKCTPRVCPFAGILENGAVRYTTFEYPNTISFSCNTGFYLNGADSAKCTEEGKWSPELPVCAPIICPPPSIPTFATLRVYKPSAGNNSLYRDTAVFECLPQHAMFGNDTITCTTHGNWTKLPECREVKCPFPSRPDNGFVNYPAKPTLYYKDKATFGCHDGYSLDGPEEIECTKLGNWSAMPSCKASCKVPVKKATVVYQGERVKIQEKFKNGMLHGDKVSFFCKNKEKKCSYTEDAQCIDGTIEVPKCFKEHSSLAFWKTDASDVKPC
stimulation of tPA-mediated conversion of Plg to Pls (tPA [1]): not | ThT fluorescence enhancement [2]: ~2 times | increased ThT fluorescence [3]: ~2 factor | binding to tPA (tPA [4]): not bind | binding to factor XII (factor XII): not bind | inhibition of binding of anti-β2GPI auto-antibodies to immobilized β2GPI [5]: minor effect on antibody binding | ThT fluorescence after exposure to CL vesicles or DXS [6]: increased fluorescence of ThT
